Values quoted from earlier work in publication PMC4166121.

Target: p38 MAPK (UniProt Q16539)
Sequence (Q16539 2-360): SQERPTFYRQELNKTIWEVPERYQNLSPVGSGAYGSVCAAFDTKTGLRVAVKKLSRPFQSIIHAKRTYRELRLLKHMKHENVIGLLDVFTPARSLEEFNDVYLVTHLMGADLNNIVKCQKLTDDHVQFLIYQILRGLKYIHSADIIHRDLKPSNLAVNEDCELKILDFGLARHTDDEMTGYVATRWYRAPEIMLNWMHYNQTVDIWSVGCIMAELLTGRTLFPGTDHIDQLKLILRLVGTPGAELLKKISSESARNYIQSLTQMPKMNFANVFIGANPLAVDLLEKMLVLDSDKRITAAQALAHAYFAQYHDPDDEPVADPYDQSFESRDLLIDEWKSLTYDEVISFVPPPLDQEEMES

Sequence of eNOS (P29474 2-1203): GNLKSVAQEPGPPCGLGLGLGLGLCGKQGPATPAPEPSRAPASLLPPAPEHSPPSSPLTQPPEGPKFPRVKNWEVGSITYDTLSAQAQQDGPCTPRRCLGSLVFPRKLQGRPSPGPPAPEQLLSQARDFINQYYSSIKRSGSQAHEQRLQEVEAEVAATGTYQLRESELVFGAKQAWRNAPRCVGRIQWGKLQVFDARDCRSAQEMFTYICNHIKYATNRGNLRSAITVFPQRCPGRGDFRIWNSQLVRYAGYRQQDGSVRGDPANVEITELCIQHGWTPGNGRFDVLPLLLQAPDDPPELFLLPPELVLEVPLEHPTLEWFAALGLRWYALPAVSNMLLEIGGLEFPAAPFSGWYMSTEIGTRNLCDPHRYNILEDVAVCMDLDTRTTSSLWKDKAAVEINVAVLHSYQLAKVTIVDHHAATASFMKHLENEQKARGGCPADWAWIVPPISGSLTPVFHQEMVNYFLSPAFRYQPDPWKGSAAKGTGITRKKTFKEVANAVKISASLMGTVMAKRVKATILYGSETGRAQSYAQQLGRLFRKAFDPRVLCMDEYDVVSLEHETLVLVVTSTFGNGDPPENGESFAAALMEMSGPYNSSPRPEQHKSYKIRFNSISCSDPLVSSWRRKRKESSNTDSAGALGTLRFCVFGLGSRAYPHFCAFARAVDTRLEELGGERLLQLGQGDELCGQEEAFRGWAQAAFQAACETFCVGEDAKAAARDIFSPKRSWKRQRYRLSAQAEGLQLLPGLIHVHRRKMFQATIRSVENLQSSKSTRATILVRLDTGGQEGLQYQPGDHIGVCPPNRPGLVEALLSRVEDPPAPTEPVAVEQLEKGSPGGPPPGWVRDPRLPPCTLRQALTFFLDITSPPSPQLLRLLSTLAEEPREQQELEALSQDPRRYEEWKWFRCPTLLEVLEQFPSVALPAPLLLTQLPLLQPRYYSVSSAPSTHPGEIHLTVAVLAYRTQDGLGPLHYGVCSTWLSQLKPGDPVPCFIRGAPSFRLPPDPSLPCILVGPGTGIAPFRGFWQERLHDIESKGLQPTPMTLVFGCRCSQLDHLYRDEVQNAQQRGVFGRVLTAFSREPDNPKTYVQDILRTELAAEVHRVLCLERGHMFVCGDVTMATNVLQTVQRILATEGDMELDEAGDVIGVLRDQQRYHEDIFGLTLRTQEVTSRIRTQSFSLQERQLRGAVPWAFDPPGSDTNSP

Kd: 0.08 nM
Substance: eNOS (from UniProt P29474)
